One block for each binder: values may come before it.
Columns and labels:
[1] = biological target: T1, human MCT1 (monocarboxylate transporter 1, SLC16A1) (human, UniProt P53985 1-500); test: flow cytometry, MFI on 293T WT (MCT1+ 293) cells, full Mabs
T1 construct: Multipass membrane transporter; also called human MCT1 protein
T1 sequence: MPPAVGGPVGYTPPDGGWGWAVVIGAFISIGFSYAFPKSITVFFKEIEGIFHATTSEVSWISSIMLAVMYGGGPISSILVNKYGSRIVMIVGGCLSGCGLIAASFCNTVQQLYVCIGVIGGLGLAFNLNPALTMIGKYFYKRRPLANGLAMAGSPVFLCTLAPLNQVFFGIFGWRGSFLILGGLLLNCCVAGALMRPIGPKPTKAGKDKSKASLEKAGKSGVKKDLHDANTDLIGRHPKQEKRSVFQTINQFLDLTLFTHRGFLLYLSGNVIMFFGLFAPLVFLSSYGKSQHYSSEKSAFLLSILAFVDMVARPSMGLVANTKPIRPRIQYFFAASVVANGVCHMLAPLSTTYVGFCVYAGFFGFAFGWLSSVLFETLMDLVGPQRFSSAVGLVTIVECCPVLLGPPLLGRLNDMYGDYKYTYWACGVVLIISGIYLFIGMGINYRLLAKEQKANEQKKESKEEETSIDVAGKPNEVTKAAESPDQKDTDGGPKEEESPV

[2] = biological target: T1, human MCT1 (monocarboxylate transporter …); test: Kinetic Exclusion Assay (KinExA)
rat MCT1 = biological target: T2, rat MCT1 (rat, UniProt P53987 1-494); test: flow cytometry, rat PBMC (live gate), resting and stimulated
T2 construct: whole, on cells; also called rodent MCT1
T2 sequence (looked up): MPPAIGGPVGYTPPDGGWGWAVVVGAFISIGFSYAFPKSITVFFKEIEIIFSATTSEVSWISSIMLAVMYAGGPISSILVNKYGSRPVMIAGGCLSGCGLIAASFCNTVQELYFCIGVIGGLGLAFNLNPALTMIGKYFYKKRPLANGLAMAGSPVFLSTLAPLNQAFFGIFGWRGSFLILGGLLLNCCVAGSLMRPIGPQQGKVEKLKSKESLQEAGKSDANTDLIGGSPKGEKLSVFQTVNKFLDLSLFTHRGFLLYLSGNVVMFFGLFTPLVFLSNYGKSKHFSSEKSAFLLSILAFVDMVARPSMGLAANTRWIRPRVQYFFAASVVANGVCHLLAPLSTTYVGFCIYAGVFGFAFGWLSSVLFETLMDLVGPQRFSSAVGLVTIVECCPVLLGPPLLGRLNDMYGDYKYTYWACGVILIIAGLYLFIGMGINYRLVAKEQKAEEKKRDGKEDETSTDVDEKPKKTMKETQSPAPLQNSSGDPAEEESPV

- binding result [1]: no binding
B1: LM-187 (antibody, V domains shown)
VH: AVTLDESGGGLQTPGGLVSLVCKASGFGFTNYEIHWVRQAPGKGLEWVGFVSSGGAYADYAPAVKGRATITRDNGQSTVRLQLVNLRAEDTGTYYCTRAPCGSWCGWGYTGVDNIDAWGHGTEVIVSS
VL: ALTQPSSVSANPGGIVKITCSGGGRGSHYGWYQQKSPGSAPVTLIYANNQRPSDIPSRFSGSESGSTATLTITGVQAEDEAVYFCGGYDSGATFGAGTTLTVL

- Kd [2]: 6.3 nM
- binding result (rat MCT1): no binding
B2: MCT1 Ab1 (antibody, V domains shown)
VH: QVQLKATGPGLVQPTQTLSITCTVSGFSLTNYHLQWVRQTPGKGLEWMGFIRSSGNTEYNSEFKSRLSISRDTSKNQVFLKMNSLKTDDTGVYYCARNSWYHGTYYSPGYYVMDAWGQGASVTVSS
VL: NIHLTQSPSLLSASVGDRVTLSCKGSQNINNYLAWFQQKFGETPKLLIYNRHNLQTGIPSRFSGSGSGTDYTLTINSLQPEDVATYFCYQYSDGYTFGAGTKLELK
notes: also called INX310; Rat Anti-MCT1 antibody
